Target: CipA (hexahistidine-tagged, lacking the N-terminal signal sequence, amino acid residues 19-369) (Acinetobacter baumannii)
Test: ELISA; CipA immobilised (5 µg/ml), increasing amounts of complement component (0 to 50 nM in the methods; 0 to 25 nM FI in the legend); dissociation constant approximated by non-linear regression, one-site specific binding model
Conditions: not given

For “Factor I (from UniProt P05156 19-335; P05156 340-583) (enzyme)”, the Kd was 3 nM.

Target: Factor I (UniProt P05156)
Test: ELISA
Conditions: CipA variants coated at 5 ng/µl; FI 10 ng/µl; anti-FI antibody 1:1,000; parent: est. 2.8; read off a plot

In order of falling response (Absorbance at 490 nm):
1. CipA (hexahistidine-tagged, lacking the N-terminal signal sequence, amino acid residues 19-369) L363del; V364del  2.7
2. CipA (hexahistidine-tagged, lacking the N-terminal signal sequence, amino acid residues 19-369) K365A; K366A; K368A; K369A  2.7
3. CipA (hexahistidine-tagged, lacking the N-terminal signal sequence, amino acid residues 19-369) P367A  2.1
4. CipA (hexahistidine-tagged, lacking the N-terminal signal sequence, amino acid residues 19-369) L363del  2
5. CipA (hexahistidine-tagged, lacking the N-terminal signal sequence, amino acid residues 19-369) P367del  2
6. CipA (hexahistidine-tagged, lacking the N-terminal signal sequence, amino acid residues 19-369) V364del  1.9

Same assay, conditions: CipA variants coated at 5 ng/µl; FI 10 ng/µl; anti-FI antibody 1:1,000; parent: est. 3.1; read off a plot

In order of falling response (Absorbance at 490 nm):
1. CipA (hexahistidine-tagged, lacking the N-terminal signal sequence, amino acid residues 19-369) Q361A  3.1
2. CipA (hexahistidine-tagged, lacking the N-terminal signal sequence, amino acid residues 19-369) E362A  2.9
3. CipA (hexahistidine-tagged, lacking the N-terminal signal sequence, amino acid residues 19-369) E360A  2.8
4. CipA (hexahistidine-tagged, lacking the N-terminal signal sequence, amino acid residues 19-369) E360P  0.35

Source: PMC9361855
